Patent publication US20080263689A1 (GARVAN INSTITUTE OF MEDICAL RESEARCH, published 2008)

Biological target: T1, insulin receptor (IR) of mouse primary hepatocytes (mouse, UniProt P15208 28-748; P15208 753-1372)
T1 construct: whole, on cells; Endogenous receptor on intact primary hepatocytes from wild type or PKCε-/- mice; in cell lysates for the co-precipitation
Assay: co-precipitation from hepatocytes of wild type mice; data not shown

T1 sequence (P15208 28-748 limits assumed, chain 1 of 2): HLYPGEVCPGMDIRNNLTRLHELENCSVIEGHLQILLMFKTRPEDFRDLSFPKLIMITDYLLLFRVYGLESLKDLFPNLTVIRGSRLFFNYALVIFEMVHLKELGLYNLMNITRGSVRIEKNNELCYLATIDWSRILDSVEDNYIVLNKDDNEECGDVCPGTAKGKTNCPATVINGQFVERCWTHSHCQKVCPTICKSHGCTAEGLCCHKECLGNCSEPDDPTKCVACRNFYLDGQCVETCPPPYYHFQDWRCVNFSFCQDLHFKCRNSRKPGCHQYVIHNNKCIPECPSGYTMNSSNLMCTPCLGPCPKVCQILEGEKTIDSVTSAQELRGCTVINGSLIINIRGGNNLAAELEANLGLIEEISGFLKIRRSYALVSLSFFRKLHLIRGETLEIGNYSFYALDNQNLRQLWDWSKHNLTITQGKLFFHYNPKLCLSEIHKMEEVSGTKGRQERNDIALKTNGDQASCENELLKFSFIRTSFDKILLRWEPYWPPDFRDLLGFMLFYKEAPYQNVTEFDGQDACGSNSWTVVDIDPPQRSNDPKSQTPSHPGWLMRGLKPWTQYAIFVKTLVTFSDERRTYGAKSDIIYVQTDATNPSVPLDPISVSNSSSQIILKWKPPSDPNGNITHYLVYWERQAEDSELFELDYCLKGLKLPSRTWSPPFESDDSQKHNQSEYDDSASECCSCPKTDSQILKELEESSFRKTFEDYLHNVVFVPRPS
T1 sequence (P15208 753-1372 limits assumed, chain 2 of 2): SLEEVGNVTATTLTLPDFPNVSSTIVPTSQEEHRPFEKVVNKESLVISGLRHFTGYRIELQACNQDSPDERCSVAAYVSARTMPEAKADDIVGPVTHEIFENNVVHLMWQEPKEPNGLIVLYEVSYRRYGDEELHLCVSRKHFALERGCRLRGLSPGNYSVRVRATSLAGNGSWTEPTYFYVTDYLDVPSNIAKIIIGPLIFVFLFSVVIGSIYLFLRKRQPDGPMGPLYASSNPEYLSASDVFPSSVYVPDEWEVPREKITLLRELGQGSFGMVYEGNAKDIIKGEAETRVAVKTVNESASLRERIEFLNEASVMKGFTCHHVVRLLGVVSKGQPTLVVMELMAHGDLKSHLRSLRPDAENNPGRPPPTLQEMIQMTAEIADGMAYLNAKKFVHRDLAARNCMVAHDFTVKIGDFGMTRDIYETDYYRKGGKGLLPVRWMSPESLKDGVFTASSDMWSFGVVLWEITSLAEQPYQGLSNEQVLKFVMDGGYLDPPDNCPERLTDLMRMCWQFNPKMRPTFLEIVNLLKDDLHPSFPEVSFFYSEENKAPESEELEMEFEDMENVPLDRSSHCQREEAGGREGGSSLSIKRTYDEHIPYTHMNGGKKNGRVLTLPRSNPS

binding result: no binding
B1: protein kinase C epsilon (PKCε), murine (enzyme)
chain: MVVFNGLLKIKICEAVSLKPTAWSLRHAVGPRPQTFLLDPYIALNVDDSRIGQTATKQKTNSPAWHDEFVTDVCNGRKIELAVFHDAPIGYDDFVANCTIQFEELLQNGSRHFEDWIDLEPEGKVYVIIDLSGSSGEAPKDNEERVFRERMRPRKRQGAVRRRVHQVNGHKFMATYLRQPTYCSHCRDFIWGVIGKQGYQCQVCTCVVHKRCHELIITKCAGLKKQETPDEVGSQRFSVNMPHKFGIHNYKVPTFCDHCGSLLWGLLRQGLQCKVCKMNVHRRCETNVAPNCGVDARGIAKVLADLGVTPDKITNSGQRRKKLAAGAESPQPASGNSPSEDDRSKSAPTSPCDQELKELENNIRKALSFDNRGEEHRASSATDGQLASPGENGEVRPGQAKRLGLDEFNFIKVLGKGSFGKVMLAELKGKDEVYAVKVLKKDVILQDDDVDCTMTEKRILALARKHPYLTQLYCCFQTKDRLFFVMEYVNGGDLMFQIQRSRKFDEPRSRFYAAEVTSALMFLHQHGVIYRDLKLDNILLDAEGHCKLADFGMCKEGIMNGVTTTTFCGTPDYIAPEILQELEYGPSVDWWALGVLMYEMMAGQPPFEADNEDDLFESILHDDVLYPVWLSKEAVSILKAFMTKNPHKRLGCVAAQNGEDAIKQHPFFKEIDWVLLEQKKIKPPFKPRIKTKRDVNNFDQDFTREEPILTLVDEAIIKQINQEEFKGFSYFGEDLMP
notes: Endogenous PKCε in hepatocytes of wild type mice
